According to PMC5332220:
Read-outs that look alike come from different tables or passages of the source.

Experiments:
SspB_micro [1] = molecular target: SspB_micro (UniProt P45206)
SspB_milli [2] = molecular target: SspB_milli (UniProt P45206)
SspB_nano [3] = molecular target: SspB_nano (UniProt P45206)
SspB_micro [4] = molecular target: SspB_micro (UniProt P45206); assay: fluorescence polarisation
SspB_milli [5] = molecular target: SspB_milli (UniProt P45206); assay: fluorescence polarisation
SspB_nano [6] = molecular target: SspB_nano (UniProt P45206); assay: fluorescence polarisation
SspB_micro [7] = molecular target: SspB_micro (UniProt P45206); assay: fluorescence polarisation; remark: listed apart in the source
SspB_milli [8] = molecular target: SspB_milli (UniProt P45206); assay: fluorescence polarisation; remark: listed apart in the source
SspB_nano [9] = molecular target: SspB_nano (UniProt P45206); assay: fluorescence polarisation; remark: listed apart in the source

**Q.** Which spine/shaft ratio of GluA1-mCh-SspB fluorescence, dark (SspB_micro [1]) does the source give for “sLID (slow Light Inducible Dimer) (designed binder)” here?
**A.** 1.5

**Q.** What about the spine/shaft ratio of GluA1-mCh-SspB fluorescence, light (SspB_micro [1]) of the same substance?
**A.** 1.8

**Q.** What about the spine/shaft ratio of GluA1-mCh-SspB fluorescence, dark (SspB_milli [2]) of the same substance?
**A.** 1.5

**Q.** And the spine/shaft ratio of GluA1-mCh-SspB fluorescence, light (SspB_milli [2])?
**A.** 2.4

**Q.** What about the spine/shaft ratio of GluA1-mCh-SspB fluorescence, dark (SspB_nano [3]) of the same substance?
**A.** 2.8

**Q.** And the spine/shaft ratio of GluA1-mCh-SspB fluorescence, light (SspB_nano [3])?
**A.** 2.9

**Q.** And the Kd (SspB_micro [4])?
**A.** 2.5 µM

**Q.** And the Kd (SspB_milli [5])?
**A.** 125 µM

**Q.** And the Kd (SspB_nano [6])?
**A.** 0.31 µM

**Q.** And the Kd (SspB_micro [7])?
**A.** 0.11 µM

**Q.** What about the Kd (SspB_milli [8]) of the same substance?
**A.** 3 µM

**Q.** And the Kd (SspB_nano [9])?
**A.** 0.007 µM
